What was measured:
[1] = molecular target: T1, SARS-CoV-2 spike (S) protein trimer, WA01/2020 strain (SARS-CoV-2, WA01/2020 strain, UniProt P0DTC2 16-1213)
[2] = molecular target: T2, S2 subunit of the SARS-CoV-2 spike protein, WA01/2020 strain (SARS-CoV-2, WA01/2020 strain, UniProt P0DTC2 686-1213); assay: ELISA, antibody at 0.1 ug/mL
[3] = molecular target: T3, S1 subunit of the SARS-CoV-2 spike protein, WA01/2020 strain (SARS-CoV-2, WA01/2020 strain, UniProt P0DTC2 16-685); assay: ELISA, antibody at 0.1 ug/mL
[4] = molecular target: T4, SARS-CoV-2 nucleocapsid (N) protein (SARS-CoV-2, UniProt P0DTC9 1-419); assay: ELISA, antibody at 0.1 ug/mL
[5] = molecular target: T1, SARS-CoV-2 spike (S) protein trimer, …; assay: dose-response ELISA on coated antigen
[6] = molecular target: T3, S1 subunit of the SARS-CoV-2 spike …
[7] = molecular target: T3, S1 subunit of the SARS-CoV-2 spike …; assay: dose-response ELISA on coated antigen
[8] = molecular target: T2, S2 subunit of the SARS-CoV-2 spike …; assay: dose-response ELISA; antigen taken from the column 'Structural data'
[9] = molecular target: SARS-CoV (2003) spike protein borne on lentiviral pseudovirus (SARS-CoV (2003), UniProt P59594 14-1255); assay: cell-based or functional assay
[10] = molecular target: T2, S2 subunit of the SARS-CoV-2 spike …; assay: ELISA on S2 (S2 Binding EC50)
[11] = molecular target: T3, S1 subunit of the SARS-CoV-2 spike …; assay: ELISA screening, antibody concentration not given
[12] = molecular target: T4, SARS-CoV-2 nucleocapsid (N) protein; assay: ELISA screening, antibody concentration not given
[13] = molecular target: SARS-CoV-2 spike protein, WA1/2020, borne on lentiviral pseudovirus (SARS-CoV-2, WA01/2020 strain, UniProt P0DTC2 14-1273); assay: cell-based or functional assay

B1: antibody 2854 (antibody, V domains shown)
VH: QVQLVQSGAEVKKPGSSVKVSCKASGGTFSSYAISWVRQAPGQGLEWMGGIIPIFHTANYAQKFQGRVTITADESTSTTYVELSSLRSEDTAMYYCATLPITIFGEEYSFDNWGQGTLVTVSS
VL: DVVMTQSPLSLPVTLGQPASISCRSSQSLVHSDGNTYLSWFQQRPGQSPRRLIYKVSDRDSGVPDRFSGSGSGTDFTLKISRVEAEDVGIYYCMQGTHWPPLTFGGGTKVEIK
Kd [1]: 0.112 nM | binding result [2]: no binding (tested: 0.1 ug/mL) | binding result [3]: no binding (tested: 0.1 ug/mL) | binding result [4]: no binding (tested: 0.1 ug/mL) | EC50 [5]: 0.152 nM

B2: antibody 2019 (antibody, V domains shown)
VH: QVQLVESGGGVVQPGGSLSLSCAASGLSFSSYGMHWVRQAPGKGLEWVAFIRYDVSNKYYADSVKGRFTISRDNSKNTLYLQMNSLRVEDTAVYYCATWAPLDDGMDVWGQGTTVTVSS
VL: SYELTQPPSVSVSPGQTARITCSGDALPKQYAYWYQQKPGQAPVLVIYKDTERPSGIPERFSGSSSGTTVTLTISGVQAEDEADYYCQSGDSSGTFYVVFGGGTKLTVL
Kd [1]: 0.057 nM | binding result [2]: no binding (tested: 0.1 ug/mL) | binding result [3]: no binding (tested: 0.1 ug/mL) | binding result [4]: no binding (tested: 0.1 ug/mL) | EC50 [5]: 0.024 nM

B3: antibody 1238 (antibody, V domains shown)
VH: QVQLVQSGSELKKPGASVKVSCKASGYTFTNYGMNWVRQAPGQGLEWMGWINTNTGNPTNAQGFTGRFVFSLDTSVSTAYLQINSLKGEDTAVYYCARVADTGEMDVWGQGTTVTVSS
VL: SYELTQPPSVSVSPGQTARITCSGDALPKQYAYWYQQKPGQAPVLVIYKDSERPSGIPERFSGSSSGTTVTLTISGVQAEDEADYYCQSADSSGSYNWVFGGGTKLTIL
Kd [6]: 0.027 nM | binding result [2]: no binding (tested: 0.1 ug/mL) | binding result [4]: no binding (tested: 0.1 ug/mL) | EC50 [7]: 0.028 nM | EC50 [5]: 0.069 nM

B4: antibody 1823 (antibody, V domains shown)
VH: EVQLVESGGGLVKPGGSLRLSCVASGFSFGLYTMNWVRQAPGKGLEWVSYISSSTSYKYYADSVKGRVSVSRDNAKNSLYLQLNGLRVEDTAVYYCARDGYCPNGICTYYGMDVWGQGTTVTVSA
VL: EIVMTQSPATLSVSPGERATLSCRASQSVSSNLAWYQQKPGQAPRLLIYGASTRATGIPARFSGSGSGTEFTLTITGLQSEDFAVYYCQQYDKWPPAYSFGQGTKVEIK
EC50 [8]: 0.614 nM | Pseudo Neut, SARS-CoV 2003 IC50 [9]: 210 nM | EC50 [10]: 0.614 nM

B5: antibody 1871 (antibody, V domains shown)
VH: EVQLVESGGGLVKPGGSLRLSCVASGFSFSIYSMNWVRQAPGKGLEWVSYISSSSSYKYYADSVKGRFSVSRDNAKNSLYLQLNGLRAEDTAVYYCARDGYCPKGVCTYYGMDVWGQGTTVTVSA
VL: EIVMTQSPATLSVSPGERVTLSCRASQSVRSRLAWFQQKPGQAPRLLIYDASIRATGIPARFSGSGSGTEFTLIISSLQSEDFAVYYCQQYDNWPPAYTFGQGTKLEIK
binding result [11]: no binding (tested: not printed) | binding result [12]: no binding (tested: not printed) | EC50 [8]: 0.103 nM | Pseudo Neut, SARS-CoV 2003 IC50 [9]: 30 nM | Pseudo Neut, WA1/2020 IC50 (pM) [13]: 440 pM | EC50 [10]: 0.103 nM

B6: antibody 2866 (antibody, V domains shown)
VH: QVQLVQSGAEVKKPGSSVKVSCKASGGTFSSYSISWVRQAPGQGLEWMGGLAPIFHTPNYAQKFQGRVTITADESTSTAYMELSSLRSEDTAVYYCARVAGAGWGVYGAFDYWGQGTLVTVSS
VL: not shown
Kd [1]: 0.154 nM | binding result [2]: no binding (tested: 0.1 ug/mL) | binding result [3]: no binding (tested: 0.1 ug/mL) | binding result [4]: no binding (tested: 0.1 ug/mL) | EC50 [5]: 0.182 nM

B7: antibody 2646 (antibody, V domains shown)
VH: QVQLVQSGAEVKKPGASVKVSCKVSGYTLTELSIHWVRQAPGKGLEWMGGFDPEDAETIYAQKFQGRVTMTEDTSTDTAYMELSSLRSEDTAVYYCATATAVAGTVFNYQYHYGLDFWGQGTTVTVSS
VL: not shown
Kd [6]: 0.00296 nM | EC50 [7]: 0.033 nM | EC50 [5]: 0.024 nM

B8: antibody 2025 (antibody, V domains shown)
VH: QVQLVQSGAEVKKPGASVKVSCKVSGYTLIELSMHWVRQAPGKGLEWMGGFDPEDVETIYAQKFQGRVTMTEDTSTDTAYMELSSLRSEDTAVYYCATAYAVQWRGMIGYWGQGTLVTVSS
VL: QSALTQPASVSGSPGQSITISCTGTSSDVGSYNLVSWYQQHPGKAPKLMIYEVSKRPSGVSNRFSGSKSGNTASLTISGLQAEDEADYYCSSYAGSSTFSYVFGTGTKVTVL
binding result [2]: no binding (tested: 0.1 ug/mL) | binding result [4]: no binding (tested: 0.1 ug/mL)

B9: antibody 1671 (antibody, V domains shown)
VH: EVQLVESGGGLVKPGGSLRLSCAASGFTFSTYNMNWVRQAPGKGLEWVSSISSNSNYIYYADSMKGRFTISRDNAKNSLYLQMNSLRAEDTAVYYCARDMDPLPYFDWLLYAFDVWGQGTMVTVSS
VL: EIVLTQSPGTLSLSPGERATLSCRASQSVSGSYLAWYQQKPGQAPRLLIYGASSRATGIPDRFSGSGSGTDFTLTISRLEPEDFAVYYCQQYGSPIFTFGPGTKVDIK
Kd [6]: 0.0506 nM

B10: antibody 1814 (antibody, V domains shown)
VH: QVQLQESGPGLVKPSETLSLTCSVSGGSINYYYWSWIRQTPGQGLEWIGFIYSSGTTNYNPSLKSRVTMSKDTAKKQFSLKLTSVTAADSAVYYCARHSRSCTNGVCQTYYYYALDVWGHGTTVTVSS
VL: QSVLTQPPSVSGAPGQRVTISCTGSGSNIGSGYDVHWYQQLPGRAPKLLIYRNRNRPSGVPDRFSGSKSGTSASLAIAGLQSEDEGDYFCQSYDGRLGESAVFGGGTRLTVL
binding result [11]: no binding (tested: not printed) | binding result [12]: no binding (tested: not printed) | EC50 [8]: 0.077 nM | Pseudo Neut, SARS-CoV 2003 IC50 [9]: 6.5 nM | Pseudo Neut, WA1/2020 IC50 (pM) [13]: 171 pM | EC50 [10]: 0.077 nM

B11: antibody 1815 (antibody, V domains shown)
VH: QVQLQESGPGLVKPSETLSLTCSVSGGSINYYYWSWIRKSPGKGLEWIGFIYSSGTTNYNPSLKSRVSMSIGTSKRQFSLKLSSVTAADSAVYYCARHSRSCTNGVCQTYYYYALDVWGHGTTVTVSS
VL: QSVLTQPPSVSGAPGQRVTISCTGSSSNIGAGYDVHWYQQLPGTAPKLLIYANTHRPSGVPDRFSASKSGTSASLAIAGLQAEDEGDYYCQSYDGSLSESAVFGGGTRLTVL
binding result [11]: no binding (tested: not printed) | binding result [12]: no binding (tested: not printed) | EC50 [8]: 0.127 nM | Pseudo Neut, SARS-CoV 2003 IC50 [9]: 26 nM | Pseudo Neut, WA1/2020 IC50 (pM) [13]: 10.2 pM | EC50 [10]: 0.127 nM

B12: antibody 2598 (antibody, V domains shown)
VH: QVQLQESGPGLVKPSGTLSLTCVVSGGSISSSNWWSWVRQPPGKGLEWIGETFHSGSFNYNPSLKSRVTISVDKSKNQFSLKLSSVTAADTAIYYCATTRVGYEGHFYYYGMDVWGQGTTVTVSS
VL: DIQMTQSPSSVSASVGDRVTITCRASQGISSWLAWYQQKPGKAPKLLIYAASSLQSGVPSRFSGSGSGTDFTLTISSLQPEDFATYYCQQANRFPWTFGQGTKVEIK
Kd [6]: 0.00823 nM | EC50 [7]: 0.084 nM | EC50 [5]: 0.043 nM

B13: antibody 2788 (antibody, V domains shown)
VH: QVQLVQSGAEVKKPGASVKVSCKVSGYTLIELSMHWVRQAPGKGLEWMGGFDPEGAETIYAQKFQGRVTMTEDTSTDTAYMELSSLRSDDTAVYYCATGPAVFAANWFDPWGQGTLVTVSS
VL: QSALTQPPSASGSPGQSVTISCTGTSSDIGNYNNVSWYQQHPGKAPKLMIYDVIKRPSGVPDRFSGSKSGNTASLTVSGLQAEDEADYYCSSYAGKSYVFGTGTKVTVL
binding result [2]: no binding (tested: 0.1 ug/mL) | binding result [4]: no binding (tested: 0.1 ug/mL) | EC50 [7]: 0.058 nM | EC50 [5]: 0.021 nM

B14: antibody 937 (antibody, V domains shown)
VH: EVQLVESGGGLVQPGRSLRLSCAASGFTFDDYAMHWVRQAPGKGLEWVSGISWNSGSIGYADSVKGRFTISRDNAKNSLYLQMNSLKPEDTALYYCAKSTTSCYNGSQCPTKRPKPLESWGQGTLVIVSA
VL: DIQMTQSPSTLSAFVGDRVTITCRASQSINNWLAWYQQKPGEVPKLLIYKASSLENGVPSRFSGSGFGTEFTLTISSLQPDDFAIYYCQQYYSHSHTFGQGTKLEIK
binding result [2]: no binding (tested: 0.1 ug/mL) | binding result [4]: no binding (tested: 0.1 ug/mL)
